From patent publication US20260028391A1 (HUMABS BIOMED, published 2026) come the findings set out here.

Test [1] concerns the target T1, biot-RSV-F wt (respiratory syncytial virus (RSV)). The test is described as follows: BLI, SA sensor loaded with biot-RSV-F wt, mAb 5 ug/ml, 4 min association, 6 min dissociation. On the technique in general: Biolayer interferometry detects binding as a change in optical thickness at a sensor tip.
Test [2] addresses T2, RSV F expressed on transfected Expi293F cells (respiratory syncytial virus (RSV)). Nature of the test: flow cytometry, transfected Expi293F cells, fixed and permeabilised.
Test [3] concerns the target T3, RSV fusion glycoprotein (RSV-F), pre-fusion conformation, recombinant protein loaded on sensors (respiratory syncytial virus (RSV), …).
T3 construct: also called RSV-F wt; RSV-F protein
Nature of the test: same manner as Experiment 1 (Example 6, Experiment 4).

For test [4], the target named is T2, RSV F expressed on transfected Expi293F …. The test is described as follows: flow cytometry, transfected Expi293F cells, fixed and permeabilised. This is another data set of the same source. (A flow cytometer gives signals particle by particle.)
Test [5] addresses T1, biot-RSV-F wt. The test is described as follows: BLI, SA sensor loaded with biot-RSV-F wt, mAb 5 ug/ml, 4 min association, 6 min dissociation. The source holds these as a separate data set.
In test [6] the target is T1, biot-RSV-F wt. Nature of the test: BLI (Octet), biotinylated F on SA sensors, mAb 5 µg/ml.
The target of test [7] is fusion glycoprotein (F) of the MPV (non-D280N) used in the GFP-based neutralization assay of Table 23 (metapneumovirus). Nature of the test: cell-based or functional assay.
Test [8] addresses fusion glycoprotein (F) of the RSV used in the GFP-based neutralization assay of Table 23 (respiratory syncytial virus). Nature of the test: cell-based or functional assay.
In test [9] the target is T4, RSV fusion glycoprotein (RSV-F) (respiratory syncytial virus).
T4 construct: also called RSV-F wt
Nature of the test: SPR; F protein loaded on streptavidin sensors, mAb in solution. (Surface plasmon resonance follows binding to a sensor surface in real time, without labels.)
Experimental: (§1) Binding affinity of mAbs for RSV-F protein, MPV-F D280 protein, and MPV-F N280 F variant protein was assessed using surface plasmon resonance (SPR).

The target in test [10] is T5, MPV fusion glycoprotein with the D280N mutation (MPV-F N280) (metapneumovirus).
T5 construct: also called MPV F D280N; MPV-F D280N
The test is described as above.
Experimental: as §1

Test [11] addresses T6, MPV fusion glycoprotein without the D280N mutation (MPV-F D280) (metapneumovirus).
T6 construct: also called MPV F Non-D280N; MPV-F wt
The test is described as above.
Experimental: as §1

Test [12] deals with fusion glycoprotein (F) of RSV A/A2/61 (respiratory syncytial virus A/A2/61, UniProt P03420 26-574). The test is described as follows: cell-based or functional assay.
The target of test [13] is RSV A Randall fusion glycoprotein (F) (RSV A, strain Randall). The test is described as follows: cell-based or functional assay.
Test [14] concerns the target fusion glycoprotein (F) of RSV B/9727 (respiratory syncytial virus B/9727). The test is described as follows: cell-based or functional assay.
The target in a further test is RSV-B B9320 F protein (RSV B, strain B9320). Nature of the test: cell-based or functional assay.
The target of test [15] is T4, RSV fusion glycoprotein (RSV-F). The test is described as follows: biolayer interferometry (BLI), rIgG1 with M428L/N434S.
The target in test [16] is T5, MPV fusion glycoprotein with the D280N …. Described as above.
The target in test [17] is T6, MPV fusion glycoprotein without the …. The description is as above.
The target of test [18] is fusion glycoprotein (F) of MPV A1/6621 (metapneumovirus A1/6621). The test is described as follows: cell-based or functional assay.
For a further test, the target named is T7, DS-Cav1 RSV F (respiratory syncytial virus).
T7 construct: also called DC-VCav1
Nature of the test: ELISA on DS-Cav1 RSV F.

B1: MPK51-v1.1-rIgG1m17,1-LS (antibody, V domains shown)
VH: QVQLVESGGGLVKPGGSLRLSCAASGFRISGYYMIWVRQAPGKGLEWISAISGMSSYITYADSVKGRFTVSRDNGQNSLFLEMKSLRGEDTAVYFCAREEVPSPGPFDLWGQGTPVTVSS
VL: QSVVTQPPSVSGAPGQRVTIFCTGSTSNIGAGYDVHWYQHLPGTAPRLLIFRNNNRPSGVPDRFSGFKSGTSASLAIIGLQVEDEADYYCQSYDRNMDGWAFGGGTKLTVL
notes: called the parental mAb (v1.1)
In general, Kd refers to the free concentration of one partner at which half of the binding sites on the other are occupied at equilibrium, for simple one-to-one binding. In the case of B1, in the test with biot-RSV-F wt [1], the Kd is < 0.001 nM. Further, in [2], the “Binding (FACS) relative to parental mAb MPK51-v1.1” value was determined as 1.

B2: MPK36-v3 (antibody, V domains shown)
VH: EVQLVESGGGLVKPGGSLRLSCAASFTISGYYMIWIRQAPGKGLEWISYISGSSTYTNYADSVKGRFTISRDNGQNTLYLHMTSLRADDTALYYCATEQTPSPGPFDLWGQGTLVTVSS
VL: QTVVTQPPSVSGAPGQRVTISCSGTSSNIGAGYDVHWYQQFPGTSPKLLIYRNFNRPSGVPDRFSGSKSGSSASLAIAGLQAEDEADYYCQSYDKSLDGWVFGGGTKVTVL
notes: also called MPK36-v3-rIgG1-LS
Consider B2, for which the Kd in test [3] was ~0.001 nM.

B3: MPK77-v1.1-rIgG1m17,1-LS (antibody, V domains shown)
VH: QVQLVESGGGLVKPGGSLRLSCAASKSFSGYYMIWIRQAPGRGLEWIADISGSSTYTDYADSVKGRFTISRDNTRNTLYLQMNSLRPEDTAVYYCATEQVPSPGPFDLWGPGTLVTVSS
VL: QSVLTQPPSVSGAPGQRVIISCTGSSSNIGAGYDVHWYQQFPGTSPKLLIYRNTNRPSGVPDRFSGFKSGASAALAITGLQAEDEADYYCQSYDRSLSGWAFGGGTKVTVL
notes: called the parental mAb (v1.1); also called MPK77-v1.1-rIgG1-LS
Take B3: the “Binding (FACS) relative to parental mAb MPK77-v1.1” value in [4] came out at 1. The Kd in the test with biot-RSV-F wt [5] and in the test with biot-RSV-F wt [6] was < 0.001 nM in each case.

B4: MPH12 (antibody, IgG1, V domains shown)
VH: QVQLVESGGGLVKPGGSLRLSCVASGFTFSGFYMKWIRQAPGKGLEWVSSISASGSYTNYADSVEGRFTVSRDNAKNSLFLLMSSLRAEDTAVYYCARGDSYCGASACHGEFFHKWGQGTLVTVSS
VL: QSVLTQPPSVSGAPGQRVTISCTGSDSNIGADFDVHWYQQLPGTAPKLLIYGNINRPSGVPDRFSGSRSGTSAFLAITRLQAEDEADYYCQSYDRSLHYVFGAGTKVTVL
notes: also called WT; parental MPH12-wt
As a reminder, the EC50 is the concentration that produces a half-maximal response. Read a low EC50 as greater potency. In the case of B4, the “MPV IC50 (ng/mL), GFP-based in vitro neutralization” value in test [7] came out at 24.6 ng/mL. In test [8], the “RSV IC 50 (ng/mL), GFP-based in vitro neutralization” value amounted to 47.7 ng/mL. Moreover, the Kd in test [9] came to 0.75 nM; in test [10], 1.7 nM; in test [11] it was 0.001 nM; in [15], 0.42 nM; in test [16] it was 1.1 nM; in test [17], 0.026 nM. The “RSV IC50 (ng/ml), neutralization of A/A2” value in test [12] was found to be 142 ng/mL. In addition, the “RSV IC50 (ng/ml), neutralization of A/Randall” value in test [13] came to 23.1 ng/mL. In addition, the “RSV IC50 (ng/ml), neutralization of B/9727” value in test [14] worked out at 19.9 ng/mL. In addition, the “RSV IC50 (ng/ml), neutralization of B/9320” value with RSV-B B9320 F protein worked out at 3.29 ng/mL. In addition, the “MPV IC50 (nM), neutralization of MPV A1/6621” value in test [18] amounted to 0.0671 nM. The response with DS-Cav1 RSV F was half-maximal at 0.0326 µg/mL (EC50).
